Key:
[1] = biological target: dog (Canis lupus) PDL1 (dPDL1) expressed on CHO-S cells (CHO-S-dPDL1) (dog (Canis lupus)); assay: flow cytometry on CHO-S-dPDL1 cells; antibody 1 µg/mL
[2] = biological target: dog (Canis lupus) PDL1 (dPDL1) expressed on CHO-S cells (CHO-S-dPDL1) (dog (Canis lupus)); assay: flow cytometry on CHO-S-dPDL1 cells; antibody 0.1 µg/mL

dog (Canis lupus) PDL1 (dPDL1) expressed on CHO-S cells (CHO-S-dPDL1) (dog (Canis lupus)), sequence (chain, as listed by the source limits assumed, form in doubt): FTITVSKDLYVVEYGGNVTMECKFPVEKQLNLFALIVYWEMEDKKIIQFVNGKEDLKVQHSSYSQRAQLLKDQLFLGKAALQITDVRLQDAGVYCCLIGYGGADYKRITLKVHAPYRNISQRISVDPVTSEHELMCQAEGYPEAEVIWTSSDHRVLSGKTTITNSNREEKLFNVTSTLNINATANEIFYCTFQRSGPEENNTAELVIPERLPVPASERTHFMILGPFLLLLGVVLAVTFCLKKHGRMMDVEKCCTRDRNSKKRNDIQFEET

Percentage of Positive Cells (%) [1] [%]	Percentage of Positive Cells (%) [2] [%]	Binder
62.5	50.5	B21A06-N297A (antibody, human IgG1, V domains shown) VH: QVQLQESGGDVVQPGRSLRLSCAASGFTFNNYGMHWVRQAPSKGLEWVAFIWYDGSNKYYGDSVKGRFTISRDNSKNTLYLQMNSLRAEDTALYYCARGDNWNSDAFDIWGPGTMVTVSS VL: EIVMTQSPLSLPVTLGQPASISCRSSQSLVYTNGNTYLNWFQQRPGQSPRRLIYKVSSRDSGVPDRFSGSGSGTDFTLKISRVAAEDVGLYYCMQGTHWPLTFGGGTKVEIK
67.8	51	B22E02-N297A (antibody, human IgG1, V domains shown) VH: QVQLVQSGGGLVQPGRSLRLSCRASGFTFDGYSMNWVRQAPGKGLEWVGFIRSKGYGGTSESAASVKGRFTISRDDSKSIAYLQMNSLKTEDTAVYYCTRTRNWNDEGYFDYWGLGTLVTVSS VL: DIQMTQSPSSLSASVGDRVTITCQASQDINKYLNWYQQKPGKAPKLLIYDASNSETGVPSRFSGSGSGTDFTFTISSLQPEDISTYYCQQYDILPITFGQGTRLEIK
70.7	53.1	B20B02-N297A (antibody, human IgG1, V domains shown) VH: QVQLQQSGGGVVQPGRSLRLSCAASGFTFSTYGMHWVRQAPGKGLEWVAALSFDGGNIYYGDSVKGRFTISRDNSKNTLYLQMNSLRAEDTALYYCAKARLPYSYDAVDYWGQGTLVTVSS VL: EIVMTQSPATLSVSPGERATLSCRASQSVSSNLAWYQQKPGQAPRLLIYDTSTRAIGIPARFSGSGSGTEFTLTISSLQSEDFAIYYCHQYNFWPPITLGQGTRLEIK
